# Measured values published in patent US20120213794A1 (published 2012).
# Assays:
# human PCSK9 [1] = target: T1, human PCSK9 (human, UniProt Q8NBP7 31-692); assay: cell-based or functional assay
# T1 sequence (Q8NBP7 31-692 limits assumed): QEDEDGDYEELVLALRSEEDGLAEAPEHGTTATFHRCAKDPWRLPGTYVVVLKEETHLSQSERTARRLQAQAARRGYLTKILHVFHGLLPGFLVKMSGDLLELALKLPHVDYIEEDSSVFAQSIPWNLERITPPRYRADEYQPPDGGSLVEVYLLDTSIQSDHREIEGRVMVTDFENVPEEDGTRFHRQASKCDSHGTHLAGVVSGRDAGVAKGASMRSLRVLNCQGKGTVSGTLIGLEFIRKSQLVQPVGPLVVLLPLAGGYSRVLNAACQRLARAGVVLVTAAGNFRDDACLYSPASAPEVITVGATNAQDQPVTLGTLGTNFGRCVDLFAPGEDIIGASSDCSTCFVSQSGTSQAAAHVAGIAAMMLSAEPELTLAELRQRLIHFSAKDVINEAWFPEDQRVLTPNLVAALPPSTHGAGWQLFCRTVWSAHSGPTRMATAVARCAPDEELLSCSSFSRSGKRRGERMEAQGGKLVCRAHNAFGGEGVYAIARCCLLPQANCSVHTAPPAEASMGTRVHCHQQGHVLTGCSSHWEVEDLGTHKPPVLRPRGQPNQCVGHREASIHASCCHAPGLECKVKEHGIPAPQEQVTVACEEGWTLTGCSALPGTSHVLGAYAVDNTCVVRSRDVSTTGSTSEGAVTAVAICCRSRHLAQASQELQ
# rhesus PCSK9 = rhesus PCSK9 (rhesus, UniProt A8T666 31-692, limits assumed); assay: cell-based or functional assay
# murine PCSK9 = murine PCSK9 (mouse, UniProt Q80W65 35-694, limits assumed); assay: cell-based or functional assay
# human PCSK9 [2] = target: T1, human PCSK9; assay: cell-based or functional assay; remark: listed apart in the source
# human PCSK9 [3] = target: T2, human PCSK9 (human, UniProt Q8NBP7 31-692); assay: SPR (Biacore), IgG captured by anti-human IgG, PCSK9 injected at 3.75-60 nM
# T2 construct: Secreted PCSK9 is autocleaved into prodomain and mature chain, and a His-tag is named for the HEK293 constructs; also called hPCSK9; proprotein convertase subtilisin-kexin type 9
# Experimental: The affinities of those IgG molecules were also measured by Biacore assay. Briefly, anti-human IgG monoclonal antibody form Human Antibody Capture Kit provided by Biacore was immobilized on CM5 chips at level of 8000 to 10000 RU. The IgG samples at concentration of ˜0.4 μg/ml was injected onto a sensor chip for 2 minutes at a flow rate of 20 μl/min, then PCSK9 proteins at 5 concentrations (3.75 to 60 nM) were injected onto an IgG captured flow cell for binding kinetic analysis. After each round injection, the sensor chip surface was regenerated by 30 second injection of 3M Magnesium Chloride.
# T2 sequence (Q8NBP7 31-692 limits assumed): as above
# Chain of murine PCSK9 (Q80W65 35-694 limits assumed): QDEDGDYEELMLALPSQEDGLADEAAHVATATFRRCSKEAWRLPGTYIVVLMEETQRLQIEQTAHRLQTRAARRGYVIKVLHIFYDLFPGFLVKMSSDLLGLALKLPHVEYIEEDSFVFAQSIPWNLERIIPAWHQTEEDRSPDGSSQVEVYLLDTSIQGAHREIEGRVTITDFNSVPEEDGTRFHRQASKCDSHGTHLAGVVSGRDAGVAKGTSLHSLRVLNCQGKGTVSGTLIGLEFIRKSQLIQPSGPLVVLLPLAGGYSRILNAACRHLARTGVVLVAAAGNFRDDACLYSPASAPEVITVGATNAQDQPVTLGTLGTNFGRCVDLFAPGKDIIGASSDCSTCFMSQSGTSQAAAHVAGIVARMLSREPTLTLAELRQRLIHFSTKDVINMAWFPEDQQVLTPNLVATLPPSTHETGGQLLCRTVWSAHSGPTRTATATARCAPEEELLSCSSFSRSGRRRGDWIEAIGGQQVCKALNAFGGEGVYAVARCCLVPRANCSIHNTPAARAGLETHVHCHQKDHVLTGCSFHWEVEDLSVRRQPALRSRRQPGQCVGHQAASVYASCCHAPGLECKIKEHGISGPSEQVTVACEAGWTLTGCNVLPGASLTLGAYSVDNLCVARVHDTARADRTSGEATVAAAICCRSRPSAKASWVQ
# Chain of rhesus PCSK9 (A8T666 31-692 limits assumed): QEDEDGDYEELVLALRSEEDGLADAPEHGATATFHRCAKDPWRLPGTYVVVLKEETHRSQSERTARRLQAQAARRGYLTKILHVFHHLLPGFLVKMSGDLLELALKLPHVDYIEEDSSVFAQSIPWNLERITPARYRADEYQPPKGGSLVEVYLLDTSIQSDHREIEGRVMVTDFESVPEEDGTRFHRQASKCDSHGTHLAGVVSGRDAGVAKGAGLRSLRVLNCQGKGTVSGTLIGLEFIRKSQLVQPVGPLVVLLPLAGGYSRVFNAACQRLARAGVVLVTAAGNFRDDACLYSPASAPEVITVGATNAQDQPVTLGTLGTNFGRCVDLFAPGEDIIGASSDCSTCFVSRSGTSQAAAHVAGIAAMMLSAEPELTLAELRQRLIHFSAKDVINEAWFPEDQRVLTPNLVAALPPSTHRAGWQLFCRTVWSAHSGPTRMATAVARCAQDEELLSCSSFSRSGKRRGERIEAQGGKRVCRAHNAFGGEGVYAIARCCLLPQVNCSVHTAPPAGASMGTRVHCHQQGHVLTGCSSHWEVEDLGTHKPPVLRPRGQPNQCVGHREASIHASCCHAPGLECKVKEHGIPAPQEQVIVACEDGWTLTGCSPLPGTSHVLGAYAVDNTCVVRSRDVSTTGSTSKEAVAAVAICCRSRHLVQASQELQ
"Fab IC50 (nM), inhibition of PCSK9 on LDL uptake (human PCSK9 [2])",Kd (human PCSK9 [3]),koff (human PCSK9 [3]),kon (human PCSK9 [3]),Binder,further results
–,2.07 nM,0.00073 s⁻¹,353000 M⁻¹ s⁻¹,"AX213 IgG (antibody, V domains shown) VH: EVQLLESGGGLVQPGGSLRLSCKASGYTFSRYGINWVRQAPGKGLEWIGRIDPGNGGTRYNEKFKGKATISRDNSKNTLYLQMNSLRAEDTAVYYCARANDGYSFDYWGQGTLVTVSS VL: EIVLTQSPATLSLSPGERATITCRASQYVGSYLNWYQQKPGQAPRLLIYDASNRATGIPARFSGSGSGTDFTLTISSLEPEDFAVYYCQVWDSSPPVVFGGGTKVEIKR",–
12.6 nM,–,–,–,"AX211 Fab (Fab, V domains shown) VH: QVQLLESGGGLVQPGGSLRLSCKASGYTFSRQGFTWVRQAPGKGLEWIGWIDPGNGGTRYNEKFKGKATISRDNSKNTLYLQMNSLRAEDTAVYYCARYRVGYSLDYWGQGTLVTVSS VL: EIVLTQSPATLSLSPGERATITCRASQYVGSYLNWYQQKPGQAPRLLIYDASNRATGIPARFSGSGSGTDFTLTISSLEPEDFAVYYCQVWDSSPPVVFGGGTKVEIK",–
–,2.12 nM,0.000324 s⁻¹,153000 M⁻¹ s⁻¹,"AX212 IgG (antibody, V domains shown, Purified IgG) VH: QVQLLESGGGLVQPGGSLRLSCKASGYTFSSYSFSWVRQAPGKGLEWIGYIDPGSGGTKYNQKFQGKATISRDNSKNTLYLQMNSLRAEDTAVYYCARQRVGYSLDYWGQGTLVTVSS VL: EIVLTQSPATLSLSPGERATITCRASQYVGSYLNWYQQKPGQAPRLLIYDASNRATGIPARFSGSGSGTDFTLTISSLEPEDFAVYYCQVWDSSPPVVFGGGTKVEIK",–
–,9.98 nM,0.00332 s⁻¹,333000 M⁻¹ s⁻¹,"AX137 IgG (antibody, V domains shown, Purified IgG) VH: EVQLLESGGGLVQPGGSLRLSCKASGYTFSSYGMYWVRQAPGKGLEWIGWIDPGSGGTKYNEKFKGKATISRDNSKNTLYLQMNSLRAEDTAVYYCARERYGYYFDYWGQGTLVTVSS VL: EIVLTQSPATLSLSPGERATITCRASQYIGSYLNWYQQKPGQAPRLLIYDASNRATGIPARFSGSGSGTDFTLTISSLEPEDFAVYYCQAWDSSPPVVFGGGTKVEIK",–

# More lines, now with the values behind:
Binder,"Fab IC50 (nM), inhibition of PCSK9 on LDL uptake (human PCSK9 [2])",Kd (human PCSK9 [3]),koff (human PCSK9 [3]),kon (human PCSK9 [3]),further results
"AX213 IgG2 (antibody, V domains shown) VH: EVQLLESGGGLVQPGGSLRLSCKASGYTFSRYGINWVRQAPGKGLEWIGRIDPGNGGTRYNEKFKGKATISRDNSKNTLYLQMNSLRAEDTAVYYCARANDGYSFDYWGQGTLVTVSS VL: EIVLTQSPATLSLSPGERATITCRASQYVGSYLNWYQQKPGQAPRLLIYDASNRATGIPARFSGSGSGTDFTLTISSLEPEDFAVYYCQVWDSSPPVVFGGGTKVEIKR",–,–,–,–,"IgG2 IC50 (nM), inhibition of PCSK9 (LDL uptake assay) (human PCSK9 [1]): 11.1 nM; IgG2 IC50 (nM), inhibition of PCSK9 (LDL uptake assay) (rhesus PCSK9): 10.2 nM; IgG2 IC50 (nM), inhibition of PCSK9 (LDL uptake assay) (murine PCSK9): 7 nM"
"AX213 Fab (Fab, V domains shown) VH: QVQLLESGGGLVQPGGSLRLSCKASGYTFSRYGINWVRQAPGKGLEWIGRIDPGNGGTRYNEKFKGKATISRDNSKNTLYLQMNSLRAEDTAVYYCARANDGYSFDYWGQGTLVTVSS VL: EIVLTQSPATLSLSPGERATITCRASQYVGSYLNWYQQKPGQAPRLLIYDASNRATGIPARFSGSGSGTDFTLTISSLEPEDFAVYYCQVWDSSPPVVFGGGTKVEIKR",14.7 nM,–,–,–,–
"AX212 IgG2 (antibody, V domains shown) VH: QVQLLESGGGLVQPGGSLRLSCKASGYTFSSYSFSWVRQAPGKGLEWIGYIDPGSGGTKYNQKFQGKATISRDNSKNTLYLQMNSLRAEDTAVYYCARQRVGYSLDYWGQGTLVTVSS VL: EIVLTQSPATLSLSPGERATITCRASQYVGSYLNWYQQKPGQAPRLLIYDASNRATGIPARFSGSGSGTDFTLTISSLEPEDFAVYYCQVWDSSPPVVFGGGTKVEIK",–,–,–,–,"IgG2 IC50 (nM), inhibition of PCSK9 (LDL uptake assay) (human PCSK9 [1]): 9.5 nM; IgG2 IC50 (nM), inhibition of PCSK9 (LDL uptake assay) (rhesus PCSK9): 4.7 nM; IgG2 IC50 (nM), inhibition of PCSK9 (LDL uptake assay) (murine PCSK9): 7.3 nM"
"AX210 Fab (Fab, V domains shown) VH: QVQLLESGGGLVQPGGSLRLSCKASGYTFSSYSIYWVRQAPGKGLEWIGWIDPGNGGTRYNQKFQSKATISRDNSKNTLYLQMNSLRAEDTAVYYCARARVGYSLDYWGQGTLVTVSS VL: EIVLTQSPATLSLSPGERATITCRASQYVGSYLNWYQQKPGQAPRLLIYDASNRATGIPARFSGSGSGTDFTLTISSLEPEDFAVYYCQVWDSSPPVVFGGGTKVEIK",26.8 nM,–,–,–,–
"AX114 IgG (antibody, V domains shown, Purified IgG; also called AX114-IgG2) VH: EVQLLESGGGLVQPGGSLRLSCKASGYTFSSYGMYWVRQAPGKGLEWIGWIDPGSGGTKYNEKFKGKATISRDNSKNTLYLQMNSLRAEDTAVYYCARERYGYYFDYWGQGTLVTVSS VL: EIVLTQSPATLSLSPGERATITCRASQYVGTYLNWYQQKPGQAPRLLIYDASNRATGIPARFSGSGSGTDFTLTISSLEPEDFAVYYCQVWDSSPPVAFGGGTKVEIK",–,24 nM,0.00361 s⁻¹,151000 M⁻¹ s⁻¹,–
"AX210 IgG (antibody, V domains shown, Purified IgG) VH: QVQLLESGGGLVQPGGSLRLSCKASGYTFSSYSIYWVRQAPGKGLEWIGWIDPGNGGTRYNQKFQSKATISRDNSKNTLYLQMNSLRAEDTAVYYCARARVGYSLDYWGQGTLVTVSS VL: EIVLTQSPATLSLSPGERATITCRASQYVGSYLNWYQQKPGQAPRLLIYDASNRATGIPARFSGSGSGTDFTLTISSLEPEDFAVYYCQVWDSSPPVVFGGGTKVEIK",–,2.64 nM,0.000621 s⁻¹,235000 M⁻¹ s⁻¹,–
"AX212 Fab (Fab, V domains shown) VH: QVQLLESGGGLVQPGGSLRLSCKASGYTFSSYSFSWVRQAPGKGLEWIGYIDPGSGGTKYNQKFQGKATISRDNSKNTLYLQMNSLRAEDTAVYYCARQRVGYSLDYWGQGTLVTVSS VL: EIVLTQSPATLSLSPGERATITCRASQYVGSYLNWYQQKPGQAPRLLIYDASNRATGIPARFSGSGSGTDFTLTISSLEPEDFAVYYCQVWDSSPPVVFGGGTKVEIK",13.8 nM,–,–,–,–
"AX114 IgG2 (antibody, V domains shown) VH: EVQLLESGGGLVQPGGSLRLSCKASGYTFSSYGMYWVRQAPGKGLEWIGWIDPGSGGTKYNEKFKGKATISRDNSKNTLYLQMNSLRAEDTAVYYCARERYGYYFDYWGQGTLVTVSS VL: EIVLTQSPATLSLSPGERATITCRASQYVGTYLNWYQQKPGQAPRLLIYDASNRATGIPARFSGSGSGTDFTLTISSLEPEDFAVYYCQVWDSSPPVAFGGGTKVEIK",–,–,–,–,"IgG2 IC50 (nM), inhibition of PCSK9 (LDL uptake assay) (human PCSK9 [1]): 36.6 nM; IgG2 IC50 (nM), inhibition of PCSK9 (LDL uptake assay) (rhesus PCSK9): 14.4 nM; IgG2 IC50 (nM), inhibition of PCSK9 (LDL uptake assay) (murine PCSK9): 27.4 nM"
"AX211 IgG (antibody, V domains shown, Purified IgG) VH: QVQLLESGGGLVQPGGSLRLSCKASGYTFSRQGFTWVRQAPGKGLEWIGWIDPGNGGTRYNEKFKGKATISRDNSKNTLYLQMNSLRAEDTAVYYCARYRVGYSLDYWGQGTLVTVSS VL: EIVLTQSPATLSLSPGERATITCRASQYVGSYLNWYQQKPGQAPRLLIYDASNRATGIPARFSGSGSGTDFTLTISSLEPEDFAVYYCQVWDSSPPVVFGGGTKVEIK",–,1.63 nM,0.000589 s⁻¹,361000 M⁻¹ s⁻¹,–
